Experimental data from PMC3985960 (2014).

Molecular target: T1, methylamine dehydrogenase (quinone MADH) (Paracoccus denitrificans, UniProt P22619)
T1 chain 1: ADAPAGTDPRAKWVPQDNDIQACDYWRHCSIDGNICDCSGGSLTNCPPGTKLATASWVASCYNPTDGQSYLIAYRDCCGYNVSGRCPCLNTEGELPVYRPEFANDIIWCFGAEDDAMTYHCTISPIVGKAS
T1 chain 2: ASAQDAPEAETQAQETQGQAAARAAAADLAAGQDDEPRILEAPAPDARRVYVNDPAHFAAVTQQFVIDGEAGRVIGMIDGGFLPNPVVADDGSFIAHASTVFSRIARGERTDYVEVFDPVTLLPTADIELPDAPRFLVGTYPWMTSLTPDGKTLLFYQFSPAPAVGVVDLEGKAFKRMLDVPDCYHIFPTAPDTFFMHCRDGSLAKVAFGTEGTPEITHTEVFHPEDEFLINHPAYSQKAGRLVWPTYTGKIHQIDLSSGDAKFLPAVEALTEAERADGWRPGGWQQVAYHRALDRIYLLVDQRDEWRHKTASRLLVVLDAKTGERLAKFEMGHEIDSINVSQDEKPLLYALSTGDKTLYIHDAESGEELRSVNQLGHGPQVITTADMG
Experiment: single-turnover kinetics

B1: MauG (protein)
chain: EQARPADDALAALGAQLFVDPALSRNATQSCATCHDPARAFTDPREGKAGLAVSVGDDGQSHGDRNTPTLGYAALVPAFHRDANGKYKGGQFWDGRADDLKQQAGQPMLNPVEMAMPDRAAVAARLRDDPAYRTGFEALFGKGVLDDPERAFDAAAEALAAYQATGEFSPFDSKYDRVMRGEEKFTPLEEFGYTVFITWNCRLCHMQRKQGVAERETFTNFEYHNIGLPVNETAREASGLGADHVDHGLLARPGIEDPAQSGRFKVPSLRNVAVTGPYMHNGVFTDLRTAILFYNKYTSRRPEAKINPETGAPWGEPEVARNLSLAELQSGLMLDDGRVDALVAFLETLTDRRYEPLLEESRAAQKD
Question: Which Kd does the source give for B1 here?
Answer: 10.4 µM
